Here are results for one molecule from patent US12636342B2, “TARS derived from Akkermansia muciniphila or fragment thereof, and use thereof” (KOREA RESEARCH INSTITUTE OF BIOSCIENCE AND BIOTECHNOLOGY, priority 2020, dated 2026).

Test [1] deals with mouse bone marrow-derived macrophages (BMDMs). The test is described as follows: ELISA of immune cytokine secretion in LPS-treated BMDMs (inflammatory environment). The conditions noted are these: LPS-induced inflammatory environment, 24 h. It is filed as cell-based. The procedure: To determine whether AmTARS affects immune cytokine secretion when cellular inflammation was induced, mouse bone marrow-derived macrophages BMDMs as mouse-derived immune cells and human macrophages THP1 as human-derived immune cells were cultured by way of the same method as in Example 2.
Specifically, the cultured BMDMs and THP1 were treated with lipopolysaccharide (LPS) to induce an inflammatory response and were simultaneously treated with AmTARS at 0.1 μM, 0.2 μM, and 0.5 μM for 24 h to obtain cell cultures. The obtained cell cultures were analyzed for immune cytokine secretion by way of the same method as in Example 2.
Next, BMDMs were treated with LPS to create an inflammatory environment by way of the same method as in Example 3, and then treated with each TARS (AmTARS, BfTARS, eTARS, and hTARS) to investigate the secretion of IL-10.
An inflammatory environment was created through LPS in BMDMs by way of the same method as in Example 3, and then the cells were treated with the four types of fragments, and the immune cytokine secretion was determined by ELISA.
(In general: In an ELISA, binding on a coated surface is turned into a signal by an enzyme label.)

Test [2] concerns Raw 264.7 cells. Nature of the test: ELISA of immune cytokine secretion in LPS-treated Raw 264.7 cells. In kind it is cell-based, mouse. The conditions noted are these: Raw 264.7, LPS, 24 h. The procedure: Next, to determine whether the regulation of immune cytokine secretion by AmTARS in an inflammatory environment was induced by the two functional sites, the mouse-derived immune cell Raw 264.7 cells were treated with LPS to induce an immune response by the method as in Example 3, and treated with AmTARS, ΔU1AmTARS, and ΔU2AmTARS for 24 h separately to obtain cell cultures. The obtained cell cultures were analyzed for Immune cytokine secretion by way of the same method as in Example 2.

In test [3] the test system is BMDMs from TLR2-KO mouse. The test is described as follows: IL-10 production in BMDMs from TLR2 knock-out mice. It is filed as cell-based. From the text:
The TLR2-dependent immune function of AmTARS was further corroborated using TLR2 knock-out (KO) mice. […] However, IL-10 production by […] (U1/U2) was abolished in BMDMs from TLR2-KO mice, providing further evidence that AmTARS regulates host immune cells via its unique regions in a TLR2-dependent manner (FIG. 28D).

Test [4] relates to peritoneal macrophages from TLR2-KO mice. The test is described as follows: M2 macrophage polarization in TLR2-KO mice under non-inflammatory conditions. In kind it is in vivo, mouse. The following applies: 24 h. The procedure: (A and B) AmTARS interacts directly with TLR2. Pull-down assay using lysates of HEK 293T cells transfected with Strep-AmTARS and TLR2-FLAG (A). The proteins precipitated by an anti-Strep antibody were analyzed by western blotting. In vitro interaction assay using purified TLR2-FLAG and His-tagged AmTARS proteins (B). Purified TLR2-FLAG was mixed with purified His-tagged AmTARS protein. His-tagged protein was precipitated by Ni-NTA, eluted, and analyzed by SDS-PAGE. (C) TLR2-dependent anti-inflammatory function of AmTARS in BMDMs (n=6 per group). (D) The unique regions within AmTARS are essential for anti-inflammatory function in a TLR2-dependent manner (n=8 per wild-type group and n=6 per TLR2 KO group). BMDMs from WT or TLR2-KO mice were treated with the indicated proteins (C and D). (E-I) TLR2-dependent function of AmTARS in vivo. WT or TLR2-KO mice with DSS-induced colitis were injected with either PBS or AmTARS. Daily changes in disease activity scores (E). Intestinal epithelial damage, as analyzed by H&E staining (F), and damage scores (G) (n=3 per group). […] After 24 h, PECs were isolated, and the percentage of M2 macrophages (CD206+CD11b+F4/80+) was measured by flow cytometry. […] P-values were calculated by an unpaired two-tailed Student's t-test.

Test [5] concerns BMDMs. The test is described as follows: Global gene expression profiling (RNA sequencing) of BMDMs. It is filed as cell-based, mouse. The conditions noted are these: GSEA (Enrichr). The procedure:
(A-E) Global gene expression analysis. Total mRNA from BMDMs treated with either AmTARS (0.5 μM) or Pam3 (10 ng ml-1) for 1 or 3 h was isolated and analyzed by RNA sequencing (A). Principle components analysis (PCA) of the gene expression profiles for each sample (B). Hierarchical clustering of gene expression profiles from each sample identified cluster 3 and 4 (C). Gene set enrichment analysis (GSEA) of clusters 3 and 4 with respect to terms related to inflammation (D). […] (F) Overview of the experimental procedures for zebrafish. The yolk of Tg (NFκB:EGFP) transgenic zebrafish larvae (3 dpf) was injected with PBS or AmTARS. Injected larvae were treated at 3 and 5 dpf with 0.5% DSS for 24 h, with a washing period with fresh water for 24 h in between. Sample collection and analysis of Tg (NFκB:EGFP)-based EGFP intensity were conducted at 6 dpf. (G) Representative confocal images showing NF-κB signaling in the mid-distal intestines of PBS- or AmTARS-injected larvae with or without DSS treatment. White dashed lines denote the boundaries of the intestines (based on merged DIC bright field images). (H) Bar graph comparing the fluorescence intensity of the mid-distal intestines of PBS- or AmTARS-injected larvae treated (or not) with DSS (n=32 per PBS group and n=35 per DSS group). (I) Schematic model of the role of AmTARS in maintaining immune homeostasis via TLR2-mediated anti-inflammatory signaling pathways. Data shown in (A-C) are representative and repeated twice. Data shown in (H) are representative of three independent experiments, each similar results (mean±SEM). P-values were calculated by unpaired and two-tailed Student's t-test.
We next performed global gene expression profiling of BMDMs treated with AmTARS or Pam3 for 1 or 3 h (FIG. 32A). […] Subsets of genes showing different expression patterns between AmTARS and Pam3 were classified into six clusters by hierarchical clustering analysis (FIGS. 33A and 33B). The gene expression pattern at 3 h was particularly different for clusters 3 and 4 (FIGS. 32C, 33A, and 33B). […]

“Also recorded” adds a separate entry of the source.

B1: Akkermansia muciniphila-derived threonyl-tRNA synthetase (TARS) (protein)
chain: MSEHKERKTLEERQQMSDLERLRHSCAHVLATAICRLWPDAQLAGGPAVDNGFYYDVELDHRISTEDFERIEEEMKKVVKENQVFQKEVISRADAMKMAESGELGALGPRSEPSRFKIDLLNDIPEDEEISLYRNGDFTDLCAGPHVGRTGNCKAFKIMSVASAFYKGDKNRPMLQRIYGTCFPNRTQLDEHLERLEEARRRDHRKLGRELGLFCIDESVGQGLILWKPKGALIRRSLQDFITEELDKLGYSQVYTPNIGKLDLYRTSGHFPYYQESQYAPIPERDAMEKLSQEGASCAELFNGLATGTIEGYMLKPMNCPHHIKIYANDAHSYRDLPVRLAEFGTVYRWEQSGELGGMTRVRGFTQDDAHIFCTPDQLAGEIRQCLGIVKTIFGTLGMTDYRVRLSMRDPESDKYVGSPENWDKAEQALREAAEWLGADYSEEAGEAAFYGPKIDFIVRDAIGREWQLGTVQVDYNLPERFDLHYTGADNKPHRPVMVHRAPFGSMERFTGLLIEHFEGKFPTWLSPEQVRVLPISDKVTDVAAAHRTALAARGVRVTVDETPDKIGAKIRNARLDRVPYMLVLGQREAEDGTVSVRHRDKGDLGAMPFEQFADLVAREIAERHISPVI
modifications: Akkermansia muciniphila TARS
As to B1, in test [1], the “secretion of IL-6” value is “suppressed; also recorded: reduced in a dose-dependent manner”, the “secretion of IL-10” value is recorded as “increased IL-10 levels; also recorded: increased in a dose-dependent manner; also recorded: increased in a protein concentration-dependent manner” and the “secretion of TNF-α” value is “suppressed; also recorded: reduced in a dose-dependent manner”. In test [2], the “secretion of IL-6” value is “reduced in a protein concentration-dependent manner”, the “secretion of IL-10” value was “increasingly secreted in an AmTARS concentration-dependent manner” and the “secretion of TNF-α” value is “reduced in a protein concentration-dependent manner”. Besides, in test [3], the IL-10 production result was “did not induce IL-10 production”. The “M2 macrophage polarization of peritoneal macrophages” value in test [4] (TLR2-KO mice, non-inflammatory conditions) is given as “did not cause M2 macrophage polarization”. Further, in test [4] (TLR2-KO), the “M2 macrophages in PECs isolated from TLR2-KO mice (FIG. 28K)” value is “no M2 macrophages were observed”. Further, in test [5], the “transcription factors associated with up-regulated genes” value was “up-regulation of the anti-inflammation-related transcription factor CREB”.
